The results in this text go back to article PMC9412290.

In this test the target is CD46, stably expressed on CHO cells (CHO-CD46) (human) (UniProt P15529).

Where only a bound is given, the exact number is not on record here.

UniProt P15529, sequence (P15529 35-392): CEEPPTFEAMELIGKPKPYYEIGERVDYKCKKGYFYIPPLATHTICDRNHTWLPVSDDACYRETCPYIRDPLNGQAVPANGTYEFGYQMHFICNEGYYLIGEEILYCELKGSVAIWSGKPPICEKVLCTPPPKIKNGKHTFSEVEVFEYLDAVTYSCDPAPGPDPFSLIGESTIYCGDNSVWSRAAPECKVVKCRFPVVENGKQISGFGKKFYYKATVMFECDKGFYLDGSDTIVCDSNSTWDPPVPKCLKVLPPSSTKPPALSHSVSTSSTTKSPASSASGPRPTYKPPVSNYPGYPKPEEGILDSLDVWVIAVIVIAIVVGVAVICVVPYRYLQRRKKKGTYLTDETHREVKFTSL

B1: human adenovirus type 3 (Ad3) fiber, on particles of the Ad3 vector (natural protein)
chain: MAKRARLSTSFNPVYPYEDESSSQHPFINPGFISPDGFTQSPNGVLSLKCVNPLTTASGSLQLKVGSGLTVDTTDGSLEENIKVNTPLTKSNHSINLPIGNGLQIEQNKLCSKLGNGLTFDSSNSIALKNNTLWTGPKPEANCIIEYGKQNPDSKLTLILVKNGGIVNGYVTLMGASDYVNTLFKNKNVSINVELYFDATGHILPDSSSLKTDLELKYKQTADFSARGFMPSTTAYPFVLPNAGTHNENYIFGQCYYKASDGALFPLEVTVMLNKRLPDSRTSYVMTFLWSLNAGLAPETTQATLITSPFTFSYIREDD
Molecule B1 registered a percent GFP-positive cells by flow cytometry after infection of CHO-CD46 cells with 2000 vp/c of the Ad3 vector (transduction; CHO-K1 without receptor is not transduced) of 13%.

B2: human adenovirus type 3 (Ad3) fiber with the JO4 mutation (V239D), on particles of the Ad3-JO4 vector (natural protein)
chain: MAKRARLSTSFNPVYPYEDESSSQHPFINPGFISPDGFTQSPNGVLSLKCVNPLTTASGSLQLKVGSGLTVDTTDGSLEENIKVNTPLTKSNHSINLPIGNGLQIEQNKLCSKLGNGLTFDSSNSIALKNNTLWTGPKPEANCIIEYGKQNPDSKLTLILVKNGGIVNGYVTLMGASDYVNTLFKNKNVSINVELYFDATGHILPDSSSLKTDLELKYKQTADFSARGFMPSTTAYPFDLPNAGTHNENYIFGQCYYKASDGALFPLEVTVMLNKRLPDSRTSYVMTFLWSLNAGLAPETTQATLITSPFTFSYIREDD
B2 had a percent GFP-positive cells by flow cytometry after infection of CHO-CD46 cells with 2000 vp/c of the Ad3-JO4 vector (transduction; CHO-K1 without receptor is not transduced) below 5%.
